These results are taken from patent US20250376539A1 (KIRA PHARMACEUTICALS SUZHOU, published 2025).

In assay [1] the target is T1, recombinant human complement C2 (NP_000054.2), C-terminal 6His-tag, made in house (CHO cell expression) (human, UniProt P06681 21-752).
T1 construct: a linker before the tag is not described; also called human C2; Human C2
T1 sequence: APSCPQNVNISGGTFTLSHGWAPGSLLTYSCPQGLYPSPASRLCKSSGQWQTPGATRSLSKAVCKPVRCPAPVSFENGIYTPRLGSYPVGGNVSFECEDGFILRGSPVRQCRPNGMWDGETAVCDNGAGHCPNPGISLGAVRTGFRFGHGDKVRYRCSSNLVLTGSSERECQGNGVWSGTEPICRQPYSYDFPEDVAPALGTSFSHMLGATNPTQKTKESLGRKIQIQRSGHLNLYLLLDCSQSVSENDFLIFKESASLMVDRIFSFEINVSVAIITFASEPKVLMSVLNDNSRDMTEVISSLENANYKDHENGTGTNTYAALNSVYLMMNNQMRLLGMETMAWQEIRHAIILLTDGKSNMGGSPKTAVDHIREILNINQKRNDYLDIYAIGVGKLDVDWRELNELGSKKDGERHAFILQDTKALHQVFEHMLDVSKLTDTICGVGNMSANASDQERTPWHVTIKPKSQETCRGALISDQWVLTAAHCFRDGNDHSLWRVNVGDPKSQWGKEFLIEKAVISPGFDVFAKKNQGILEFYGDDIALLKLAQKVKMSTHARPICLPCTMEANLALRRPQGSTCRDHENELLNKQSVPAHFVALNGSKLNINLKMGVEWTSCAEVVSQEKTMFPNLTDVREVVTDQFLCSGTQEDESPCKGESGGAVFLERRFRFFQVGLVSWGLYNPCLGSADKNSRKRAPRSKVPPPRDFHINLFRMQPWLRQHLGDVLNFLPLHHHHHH
Nature of the assay: BLI (Gator), antibody on probe; 600 s association at pH 7.4, 600 s dissociation at pH 7.4. The method, then: (§1) The histidine mutant constructs in Table 4 were tested for their pH-dependent dissociation from human C2. Probe-immobilized anti-C2 antibodies were incubated with C2 at pH 7.4 for 600s, followed by a 600s dissociation period in K Buffer at pH 7.4 or pH 5.8. The data were processed and analyzed by the Gator evaluation software.

Assay [2] addresses T1, recombinant human complement C2 …. In words: BLI (Gator), antibody on probe; 600 s association at pH 7.4, 600 s dissociation at pH 5.8. How it is done:
as §1

Assay [3] shares this target. Nature of the assay: BLI (Gator); ratio of dissociation at pH 5.8 to pH 7.4. How it is done:
as §1

Assay [4] has the same target. Nature of the assay: binding kinetics, neutral pH (BLI presumed).

B1: 3.2 H2-10 parental (antibody, V domains shown)
VH: EVQLLESGGGLVQPGGSLRLSCAASGFTFRHYAMSWVRQAPGKGLEWVSLISGSGASTHYADSVKGRFTISRDNSENMLYLQMNSLRAEDTAVYYCAKDSLAVAGSEYFQHWGQGTLVTVSS
VL: SYVLTQAPSVSVAPGQTARITCGGNYFGGKSVHWYQQRPGQAPVLVVYDDSDRPSGIPERFSGSKSGNTATLAISRVEAGDEAAYYCQVYDTSSDHWVFGGGTKLTVL
notes: Histidine mutant of 3.2
In the case of B1, the “Dissociation (%) pH 7.4” value in assay [1] turned out to be 7.74%. In addition, the “Dissociation (%) pH 5.8” value in assay [2] is 51.3%. For the same molecule, the “Fold dissociation pH 5.8/pH 7.4” value in assay [3] is 6.6 fold.

B2: 3.2 H2-10 × L3-5 (antibody, V domains shown)
VH: EVQLLESGGGLVQPGGSLRLSCAASGFTFRHYAMSWVRQAPGKGLEWVSLISGSGASTHYADSVKGRFTISRDNSENMLYLQMNSLRAEDTAVYYCAKDSLAVAGSEYFQHWGQGTLVTVSS
VL: SYVLTQAPSVSVAPGQTARITCGGNYFGGKSVHWYQQRPGQAPVLVVYDDSDRPSGIPERFSGSKSGNTATLAISRVEAGDEAAYYCQVYDHSSDHWVFGGGTKLTVL
notes: Histidine mutant of 3.2
For the molecule B2, the “Dissociation (%) pH 7.4” value in assay [1] came out at 12.6%. Moreover, the “Dissociation (%) pH 5.8” value in assay [2] was determined as 90.7%. Also, the “Fold dissociation pH 5.8/pH 7.4” value in assay [3] is 7.2 fold.

B3: 3.2 H2-10 × L2-5 (antibody, V domains shown)
VH: EVQLLESGGGLVQPGGSLRLSCAASGFTFRHYAMSWVRQAPGKGLEWVSLISGSGASTHYADSVKGRFTISRDNSENMLYLQMNSLRAEDTAVYYCAKDSLAVAGSEYFQHWGQGTLVTVSS
VL: SYVLTQAPSVSVAPGQTARITCGGNYFGGKSVHWYQQRPGQAPVLVVYDDSDHPSGIPERFSGSKSGNTATLAISRVEAGDEAAYYCQVYDTSSDHWVFGGGTKLTVL
notes: Histidine mutant of 3.2
On to B3, for which, in assay [1], the “Dissociation (%) pH 7.4” value was determined as 5.33%. In addition, the “Dissociation (%) pH 5.8” value in assay [2] was determined as 51.6%. In addition, the “Fold dissociation pH 5.8/pH 7.4” value in assay [3] came to 9.7 fold.

B4: 3.2 H2-10 × L2-3 (antibody, V domains shown)
VH: EVQLLESGGGLVQPGGSLRLSCAASGFTFRHYAMSWVRQAPGKGLEWVSLISGSGASTHYADSVKGRFTISRDNSENMLYLQMNSLRAEDTAVYYCAKDSLAVAGSEYFQHWGQGTLVTVSS
VL: SYVLTQAPSVSVAPGQTARITCGGNYFGGKSVHWYQQRPGQAPVLVVYDDHDRPSGIPERFSGSKSGNTATLAISRVEAGDEAAYYCQVYDTSSDHWVFGGGTKLTVL
notes: Histidine mutant of 3.2
Turning to B4, in assay [1], the “Dissociation (%) pH 7.4” value stood at 5.69%. For the same molecule, in assay [2], the “Dissociation (%) pH 5.8” value amounted to 46.2%. Moreover, the “Fold dissociation pH 5.8/pH 7.4” value in assay [3] amounted to 8.1 fold.

B5: 3.2 H2-10 × L2-7 (antibody, V domains shown)
VH: EVQLLESGGGLVQPGGSLRLSCAASGFTFRHYAMSWVRQAPGKGLEWVSLISGSGASTHYADSVKGRFTISRDNSENMLYLQMNSLRAEDTAVYYCAKDSLAVAGSEYFQHWGQGTLVTVSS
VL: SYVLTQAPSVSVAPGQTARITCGGNYFGGKSVHWYQQRPGQAPVLVVYDDSDRPHGIPERFSGSKSGNTATLAISRVEAGDEAAYYCQVYDTSSDHWVFGGGTKLTVL
notes: Histidine mutant of 3.2
For the molecule B5, in assay [1], the “Dissociation (%) pH 7.4” value came out at 5.39%. Moreover, the “Dissociation (%) pH 5.8” value in assay [2] turned out to be 52.7%. The “Fold dissociation pH 5.8/pH 7.4” value in assay [3] came out at 9.8 fold.

B6: 3.2 H2-10 × L1-7 (antibody, V domains shown)
VH: EVQLLESGGGLVQPGGSLRLSCAASGFTFRHYAMSWVRQAPGKGLEWVSLISGSGASTHYADSVKGRFTISRDNSENMLYLQMNSLRAEDTAVYYCAKDSLAVAGSEYFQHWGQGTLVTVSS
VL: SYVLTQAPSVSVAPGQTARITCGGNYFGHKSVHWYQQRPGQAPVLVVYDDSDRPSGIPERFSGSKSGNTATLAISRVEAGDEAAYYCQVYDTSSDHWVFGGGTKLTVL
notes: Histidine mutant of 3.2
Take B6: in assay [1], the “Dissociation (%) pH 7.4” value is 4.05%. Further, in assay [2], the “Dissociation (%) pH 5.8” value was found to be 52%. Further, the “Fold dissociation pH 5.8/pH 7.4” value in assay [3] stood at 12.8 fold.

B7: 3.2 H2-10 × L3-4 (antibody, V domains shown)
VH: EVQLLESGGGLVQPGGSLRLSCAASGFTFRHYAMSWVRQAPGKGLEWVSLISGSGASTHYADSVKGRFTISRDNSENMLYLQMNSLRAEDTAVYYCAKDSLAVAGSEYFQHWGQGTLVTVSS
VL: SYVLTQAPSVSVAPGQTARITCGGNYFGGKSVHWYQQRPGQAPVLVVYDDSDRPSGIPERFSGSKSGNTATLAISRVEAGDEAAYYCQVYHTSSDHWVFGGGTKLTVL
notes: Histidine mutant of 3.2
B7: the “Dissociation (%) pH 7.4” value in assay [1] was 13.3%. Further, the “Dissociation (%) pH 5.8” value in assay [2] was determined as 82.8%. In addition, in assay [3], the “Fold dissociation pH 5.8/pH 7.4” value stood at 6.2 fold.

B8: 3.2 H2-10 × L2-6 (antibody, V domains shown)
VH: EVQLLESGGGLVQPGGSLRLSCAASGFTFRHYAMSWVRQAPGKGLEWVSLISGSGASTHYADSVKGRFTISRDNSENMLYLQMNSLRAEDTAVYYCAKDSLAVAGSEYFQHWGQGTLVTVSS
VL: SYVLTQAPSVSVAPGQTARITCGGNYFGGKSVHWYQQRPGQAPVLVVYDDSDRHSGIPERFSGSKSGNTATLAISRVEAGDEAAYYCQVYDTSSDHWVFGGGTKLTVL
notes: Histidine mutant of 3.2
As for B8, the “Dissociation (%) pH 7.4” value in assay [1] was 5.97%. Moreover, the “Dissociation (%) pH 5.8” value in assay [2] came to 52.6%. For the same molecule, in assay [3], the “Fold dissociation pH 5.8/pH 7.4” value came to 8.8 fold.

B9: 3.2 H2-10 × L1-8 (antibody, V domains shown)
VH: EVQLLESGGGLVQPGGSLRLSCAASGFTFRHYAMSWVRQAPGKGLEWVSLISGSGASTHYADSVKGRFTISRDNSENMLYLQMNSLRAEDTAVYYCAKDSLAVAGSEYFQHWGQGTLVTVSS
VL: SYVLTQAPSVSVAPGQTARITCGGNYFGGHSVHWYQQRPGQAPVLVVYDDSDRPSGIPERFSGSKSGNTATLAISRVEAGDEAAYYCQVYDTSSDHWVFGGGTKLTVL
notes: Histidine mutant of 3.2
For B9, in assay [1], the “Dissociation (%) pH 7.4” value turned out to be 5%. Also, in assay [2], the “Dissociation (%) pH 5.8” value stood at 51.8%. In assay [3], the “Fold dissociation pH 5.8/pH 7.4” value came out at 10.4 fold.

B10: 3.2 H2-10 × L2-1 (antibody, V domains shown)
VH: EVQLLESGGGLVQPGGSLRLSCAASGFTFRHYAMSWVRQAPGKGLEWVSLISGSGASTHYADSVKGRFTISRDNSENMLYLQMNSLRAEDTAVYYCAKDSLAVAGSEYFQHWGQGTLVTVSS
VL: SYVLTQAPSVSVAPGQTARITCGGNYFGGKSVHWYQQRPGQAPVLVVYHDSDRPSGIPERFSGSKSGNTATLAISRVEAGDEAAYYCQVYDTSSDHWVFGGGTKLTVL
notes: Histidine mutant of 3.2
B10: in assay [1], the “Dissociation (%) pH 7.4” value turned out to be 13.9%. Besides, in assay [2], the “Dissociation (%) pH 5.8” value worked out at 81.3%. The “Fold dissociation pH 5.8/pH 7.4” value in assay [3] came out at 5.8 fold.

B11: 3.2 H2-10 × L3-7 (antibody, V domains shown)
VH: EVQLLESGGGLVQPGGSLRLSCAASGFTFRHYAMSWVRQAPGKGLEWVSLISGSGASTHYADSVKGRFTISRDNSENMLYLQMNSLRAEDTAVYYCAKDSLAVAGSEYFQHWGQGTLVTVSS
VL: SYVLTQAPSVSVAPGQTARITCGGNYFGGKSVHWYQQRPGQAPVLVVYDDSDRPSGIPERFSGSKSGNTATLAISRVEAGDEAAYYCQVYDTSHDHWVFGGGTKLTVL
notes: Histidine mutant of 3.2
As to B11, the “Dissociation (%) pH 7.4” value in assay [1] worked out at 7%. Besides, the “Dissociation (%) pH 5.8” value in assay [2] is 60%. In addition, the “Fold dissociation pH 5.8/pH 7.4” value in assay [3] was 8.6 fold.

B12: 3.2 H2-10 × L3-11 (antibody, V domains shown)
VH: EVQLLESGGGLVQPGGSLRLSCAASGFTFRHYAMSWVRQAPGKGLEWVSLISGSGASTHYADSVKGRFTISRDNSENMLYLQMNSLRAEDTAVYYCAKDSLAVAGSEYFQHWGQGTLVTVSS
VL: SYVLTQAPSVSVAPGQTARITCGGNYFGGKSVHWYQQRPGQAPVLVVYDDSDRPSGIPERFSGSKSGNTATLAISRVEAGDEAAYYCQVYDTSSDHWHFGGGTKLTVL
notes: Histidine mutant of 3.2
For the molecule B12, in assay [1], the “Dissociation (%) pH 7.4” value turned out to be 7.16%. The “Dissociation (%) pH 5.8” value in assay [2] is 62.6%. In addition, the “Fold dissociation pH 5.8/pH 7.4” value in assay [3] amounted to 8.7 fold.

B13: 3.2 H2-10 × L1-2 (antibody, V domains shown)
VH: EVQLLESGGGLVQPGGSLRLSCAASGFTFRHYAMSWVRQAPGKGLEWVSLISGSGASTHYADSVKGRFTISRDNSENMLYLQMNSLRAEDTAVYYCAKDSLAVAGSEYFQHWGQGTLVTVSS
VL: SYVLTQAPSVSVAPGQTARITCGHNYFGGKSVHWYQQRPGQAPVLVVYDDSDRPSGIPERFSGSKSGNTATLAISRVEAGDEAAYYCQVYDTSSDHWVFGGGTKLTVL
notes: Histidine mutant of 3.2
The term Kd denotes the concentration at which binding is half-saturated. As a reminder, the koff is a measure of how fast the partners let go of each other. A word on the kon: it is a measure of how fast the partners come together. Turning to B13, in assay [4], the Kd was 0.33 nM, the koff is 9.39e-05 s⁻¹ and the kon came to 284000 M⁻¹ s⁻¹. Further, the “Dissociation (%) pH 7.4” value in assay [1] was determined as 5.1%. In addition, the “Dissociation (%) pH 5.8” value in assay [2] was 56.5%. Besides, the “Fold dissociation pH 5.8/pH 7.4” value in assay [3] is 11.1 fold.
